Read-outs that look alike come from different tables or passages of the source. Starred links: 1 amine or outer side, 2 acyl side, 3 side chain; linkers in the order of their positions; H or OH if unused. Positions of bridges follow the written chain, without caps; N, C: chain ends. Non-standard residues stand in square brackets, D forms with d. Residues, ends and D or L forms follow the SMILES beside them. *: point of attachment. DOTA = O=C(O)CN1CCN(CC(=O)O)CCN(CC(=O)*)CCN(CC(=O)O)CC1; dPhe(4-NHCONH2) = NC(=O)Nc1ccc(C[C@@H](N)C(=O)O)cc1; X1 = NC(=O)Nc1ccc(CC(N[*:1])C(=O)[*:2])cc1; Phe(4-Cl) = N[CH](Cc1ccc(Cl)cc1)C(=O)O
Legend:
[1] = mouse, in vivo
Description: Early side effects were assessed based on the RBW of each mouse which was monitored every second day. When an endpoint was reached or at the end of the study (after 49 days), relevant organs and tissues were collected, weighed and put into relation to the brain mass and body weight of the respective mouse. This allowed comparison of organ-to-brain and organ-to-body mass weight ratios. In addition, blood plasma parameters from blood collected immediately after euthanasia were measured.
RBW, organ mass and mass ratios at the endpoint. The RBW was monitored every second day. Mice were euthanized when a predefined endpoint criterion was reached or when the study was terminated at Day 49. RBWs, organ masses, organ mass ratios (kidney-to-brain, liver-to-brain and spleen-to-brain) and organ mass to body weight ratios (kidney-to-body mass, liver-to-body mass and spleen-to-body mass) were analyzed for significance using a one-way ANOVA test with a Tukey's multiple comparisons post-test. A p-value of <0.05 was considered as statistically significant.
Blood plasma chemistry: Immediately before euthanasia of the mice that reached the endpoint, blood was sampled from the retrobulbar vein. The values of creatinine (CRE), blood urea nitrogen (BUN), alkaline phosphatase (ALP), total bilirubin (TBIL) and albumin (ALB) were determined in the plasma after centrifugation of the blood using a dry chemistry analyzer (DRI-CHEM 4000 i, FUJIFILM, Japan). The average blood plasma parameters of each group were analyzed for significance using a one-way ANOVA test with a Tukey's multiple comparisons post-test. A p-value of <0.05 was considered as statistically significant.

[2] = tested on: AR42J tumor-bearing mice; details: 0.2 nmol/mouse
Description: Five-week-old female, athymic nude mice (CD-1 Foxn-1/nu) were obtained from Charles River Laboratories (Sulzfeld, Germany). Mice were subcutaneously inoculated with AR42 J tumor cells (5×10^6 cells in 100 μl PBS) for SPECT/CT imaging, biodistribution and therapy studies. The SPECT/CT and biodistribution studies were performed 10-14 days after tumor cell inoculation when the tumor size reached a volume of ˜250 mm^3.
The mice were sacrificed at 0.5 h, 2 h, 4 h, 24 h and 48 h p.i, selected tissues and organs were collected, weighed, and the accumulated activity was counted using a γ-counter (Perkin Elmer). The decay-corrected data were listed as % IA/g. The data were analyzed for significance using a two-way ANOVA with Tukey's multiple comparison post-tests. A p-value of <0.05 was considered statistically significant.

[3] = in vivo; details: female, athymic nude CD-1 Foxn-1/nu, mouse, iv, 1 nmol/mouse, total radioactivity

CC(O)C1NC(=O)C(CCCCN)NC(=O)C(Cc2ccc(NC(N)=O)cc2)NC(=O)C(Cc2ccc(O)cc2)NC(=O)C(NC(=O)C(Cc2ccc(Cl)cc2)NC(=O)CN2CCN(CC(=O)O)CCN(CC(=O)O)CCN(CC(=O)O)CC2)CSSCC(C(=O)NC(Cc2ccc(O)cc2)C(N)=O)NC1=O (centres unmarked) [metal not drawn] ({DOTA}-[Phe(4-Cl)]CY[X1]KTCY-NH2; disulfide 2-7; configuration not given here)
ALB (albumin), plasma [1]: 22 ± 1 g/L
ALP (alkaline phosphatase), plasma [1]: 65 ± 15 U/L
Organ mass Brain [1]: 465 ± 30 mg
Organ mass Kidneys [1]: 332 ± 46 mg
Organ mass Liver [1]: 1275 ± 254 mg
Organ mass Spleen [1]: 85 ± 27 mg
Blood uptake ([2]; 0.5 h p.i.): 1.3 ± 0.2 % IA/g
Blood uptake ([2]; 2 h p.i.): ≤0.10 % IA/g
Muscle uptake ([2]; 2 h p.i.): ≤0.10 % IA/g
Spleen uptake ([2]; 2 h p.i.): 0.41 ± 0.08 % IA/g
Blood uptake ([2]; 4 h p.i.): ≤0.10 % IA/g
Heart uptake ([2]; 4 h p.i.): ≤0.10 % IA/g
Kidneys uptake ([2]; 4 h p.i.): 9.0 ± 1.2 % IA/g
Muscle uptake ([2]; 4 h p.i.): ≤0.10 % IA/g
Blood uptake ([2]; 24 h p.i.): ≤0.10 % IA/g
Heart uptake ([2]; 24 h p.i.): ≤0.10 % IA/g
Muscle uptake ([2]; 24 h p.i.): ≤0.10 % IA/g
Blood uptake ([2]; 48 h p.i.): ≤0.10 % IA/g
Heart uptake ([2]; 48 h p.i.): ≤0.10 % IA/g
Muscle uptake ([2]; 48 h p.i.): ≤0.10 % IA/g

C[C@@H](O)[C@@H]1NC(=O)[C@H](CCCCN)NC(=O)[C@@H](Cc2ccc(NC(N)=O)cc2)NC(=O)[C@H](Cc2ccc(O)cc2)NC(=O)[C@H](NC(=O)[C@H](Cc2ccc(Cl)cc2)NC(=O)CN2CCN(CC(=O)O)CCN(CC(=O)O)CCN(CC(=O)O)CC2)CSSC[C@@H](C(=O)N[C@H](Cc2ccc(O)cc2)C(N)=O)NC1=O [metal not drawn] ({DOTA}-[Phe(4-Cl)][dC]Y[dPhe(4-NHCONH2)]KTC[dY]-NH2; disulfide 2-7)
ALB (albumin), plasma [1]: 23 ± 1 g/L
ALP (alkaline phosphatase), plasma [1]: 66 ± 5 U/L
CRE (creatinine), plasma [1]: 19 µmol/L
Organ mass Brain [1]: 471 ± 30 mg
Organ mass Kidneys [1]: 336 ± 13 mg
Organ mass Liver [1]: 1254 ± 106 mg
Organ mass Spleen [1]: 92 ± 17 mg
tissue uptake at 2 h [3]: ≤ 0.1 %ID/g
tissue uptake at 24 h [3]: ≤ 0.1 %ID/g

From patent publication US20240181094A1, “[161Tb]-BASED RADIOPEPTIDES” (priority 2021, published 2024)
